B1: M. tuberculosis DnaG without the zinc-binding domain (DnaGΔZBD, amino acids 115-639) (domain or fragment)
chain: SRLLAANAAAAAFYAQALQSDEAAPARQYLTERSFDAAAARKFGCGFAPSGWDSLTKHLQRKGFEFEELEAAGLSRQGRHGPMDRFHRRLLWPIRTSAGEVVGFGARRLFDDDAMEAKYVNTPETLLYKKSSVMFGIDLAKRDIAKGHQAVVVEGYTDVMAMHLAGVTTAVASCGTAFGGEHLAMLRRLMMDDSFFRGELIYVFDGDEAGRAAALKAFDGEQKLAGQSFVAVAPDGMDPCDLRLKCGDAALRDLVARRTPLFEFAIRAAIAEMDLDSAEGRVAALRRCVPMVGQIKDPTLRDEYARQLAGWVGWADVAQVIGRVRGEAKRTKHPRLGRLGSTTIARAAQRPTAGPPTELAVRPDPRDPTLWPQREALKSALQYPALAGPVFDALTVEGFTHPEYAAVRAAIDTAGGTSAGLSGAQWLDMVRQQTTSTVTSALISELGVEAIQVDDDKLPRYIAGVLARLQEVWLGRQIAEVKSKLQRMSPIEQGDEYHALFGDLVAMEAYRRSLLEQASGDDLTA

How the values were obtained:
[1] = molecular target: DnaG-binding domain of M. tuberculosis DnaB helicase (DnaBn, amino acids 23-166) (M. tuberculosis) (UniProt P9WMR3); experiment: cross-linking; 4 μM DnaGΔZBD with DnaBn (0-15.9 μM), 0.045% glutaraldehyde, 40 mM HEPES pH 7.5, 150 mM NaCl, 10 mM MgCl2, 0.1 mM EDTA, 1 mM DTT, 25 min at 25 °C; SDS-PAGE, Coomassie
[2] = molecular target: DnaG-binding domain of M. tuberculosis DnaB helicase (DnaBn, amino acids 23-166) (M. tuberculosis) (UniProt P9WMR3); experiment: SPR; DnaBn (2.4 μg) immobilised on a GLC chip by amine coupling; soluble DnaGΔZBD 0-600 nM, 30 μL/min; 25 °C; 40 mM HEPES pH 7.5, 200 mM NaCl, 0.1 mM EDTA, 1 mM DTT; steady-state fit; normalised to a BSA channel; three repeats
[3] = molecular target: the molecule itself; experiment: cross-linking; 4 μM DnaGΔZBD with 0.011-0.25% glutaraldehyde, 40 mM HEPES pH 7.5, 150 mM NaCl, 1 mM DTT, 0.1 mM EDTA, 0.5% DMSO, 30 min at 25 °C; SDS-PAGE, Coomassie
SAXS = molecular target: the molecule itself; experiment: SAXS

Molecule	stoichiometry N [1]	Kd [2]	monomer:dimer ratio at 0.25% glutaraldehyde [3]	stoichiometry N (SAXS)
DnaG-binding domain of M. tuberculosis DnaB helicase (DnaBn, amino acids 23-166) (from UniProt P9WMR3 23-166) (domain or fragment)	2			
B1		210 nM	~1.5 monomer per dimer	2

Source: publication PMC12278352, “Characterization of DnaB–DnaG Interaction in M. tuberculosis Using Small‐Angle X‐ray Scattering‐Based Dissociation Assay” (Chembiochem, 2025)
